The experiment addresses T1, purified human fibrinogen (Homo sapiens, UniProt P02671+P02675+P02679).
T1 construct: purchased Calbiochem 341576
T1 sequence (P02671 20-629 limits assumed): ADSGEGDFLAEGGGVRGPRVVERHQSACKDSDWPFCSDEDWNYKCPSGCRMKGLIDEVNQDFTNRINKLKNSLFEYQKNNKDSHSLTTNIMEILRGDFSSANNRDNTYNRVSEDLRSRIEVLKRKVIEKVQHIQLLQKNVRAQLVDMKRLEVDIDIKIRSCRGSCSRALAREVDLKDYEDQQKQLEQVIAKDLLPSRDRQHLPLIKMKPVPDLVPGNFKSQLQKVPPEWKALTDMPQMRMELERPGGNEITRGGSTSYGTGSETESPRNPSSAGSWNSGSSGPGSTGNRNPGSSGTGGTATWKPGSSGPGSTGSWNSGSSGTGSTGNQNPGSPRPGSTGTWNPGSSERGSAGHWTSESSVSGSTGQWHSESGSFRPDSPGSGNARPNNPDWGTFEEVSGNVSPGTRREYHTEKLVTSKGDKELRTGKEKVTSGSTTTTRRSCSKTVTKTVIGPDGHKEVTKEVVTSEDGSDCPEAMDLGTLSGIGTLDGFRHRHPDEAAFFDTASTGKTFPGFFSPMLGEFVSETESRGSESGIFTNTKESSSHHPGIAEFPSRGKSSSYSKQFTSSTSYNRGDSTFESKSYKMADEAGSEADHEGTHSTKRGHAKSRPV
T1 sequence (P02675 31-491): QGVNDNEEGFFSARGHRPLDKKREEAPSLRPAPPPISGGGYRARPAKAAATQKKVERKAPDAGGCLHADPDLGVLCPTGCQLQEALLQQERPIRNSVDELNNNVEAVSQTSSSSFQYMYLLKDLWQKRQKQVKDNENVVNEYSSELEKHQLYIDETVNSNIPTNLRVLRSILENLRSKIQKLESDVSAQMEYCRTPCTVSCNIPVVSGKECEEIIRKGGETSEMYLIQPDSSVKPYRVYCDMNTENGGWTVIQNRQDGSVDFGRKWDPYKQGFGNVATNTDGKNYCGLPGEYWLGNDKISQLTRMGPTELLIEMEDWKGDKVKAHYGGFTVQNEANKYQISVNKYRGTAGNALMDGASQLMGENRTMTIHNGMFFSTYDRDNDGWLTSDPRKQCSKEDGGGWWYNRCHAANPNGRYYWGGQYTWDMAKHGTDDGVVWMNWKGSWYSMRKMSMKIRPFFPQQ
T1 sequence (P02679 27-433 limits assumed): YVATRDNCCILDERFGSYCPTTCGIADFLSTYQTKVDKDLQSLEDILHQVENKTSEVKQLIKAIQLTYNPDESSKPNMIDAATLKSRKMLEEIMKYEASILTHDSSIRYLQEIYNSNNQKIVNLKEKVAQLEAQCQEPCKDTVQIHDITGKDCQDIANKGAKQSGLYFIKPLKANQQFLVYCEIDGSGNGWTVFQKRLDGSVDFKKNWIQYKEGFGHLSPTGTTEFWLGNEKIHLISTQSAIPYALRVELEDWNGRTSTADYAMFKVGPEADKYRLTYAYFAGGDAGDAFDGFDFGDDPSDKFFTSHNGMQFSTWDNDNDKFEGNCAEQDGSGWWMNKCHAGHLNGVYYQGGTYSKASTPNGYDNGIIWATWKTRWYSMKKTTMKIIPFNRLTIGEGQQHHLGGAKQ
The experiment is described as follows: Purified fibrinogen binding capacity of fibrinogen binding columns. The following applies: purified fibrinogen 0.5 mg/ml in PBS injected continuously, eluted with glycine 0.1M pH 2.5. As for the experimental part:
FIG. 1 is a chromatogram illustrating the purified fibrinogen binding capacity of a fibrinogen binding column utilizing the fibrinogen binding peptide of SEQ ID NO:48 and having a ligand density of 2.0 μM/ml resin. Purified fibrinogen (0.5 mg/ml in PBS) was injected continuously onto the column until the A280 reading reached a plateau. The column was then washed with PBS until a baseline reading was obtained and then eluted with glycine buffer (0.1M, pH 2.5). The eluted fraction (major peak) was collected and analyzed by HPLC Size Exclusion Chromatography (SEC). The capacity of the column was calculated to be 2.076 mg fibrinogen/ml resin.
FIG. 2 is a chromatogram illustrating the purified fibrinogen binding capacity of a fibrinogen binding column utilizing the fibrinogen binding peptide of SEQ ID NO:48 and having a ligand density of 4.0 μM/ml resin. Purified fibrinogen (0.5 mg/ml in PBS) was injected continuously onto the column until the A280 reading reached a plateau. The column was then washed with PBS until a baseline reading was obtained and then eluted with glycine buffer (0.1M, pH 2.5). The eluted fraction (major peak) was collected and analyzed by HPLC Size Exclusion Chromatography (SEC). The capacity of the column was calculated to be 4.1 mg fibrinogen/ml resin. […]

Bridges are numbered along the chain shown (N, C = ends).

With “SEQ ID NO:48: fibrinogen binding polypeptide containing the cyclic core peptide of SEQ ID NO: 43 (Ac-AEGTGSLYLCNSYPMHPYCNPGK-NH2; disulfide 10-19 (inferred))”, the “fibrinogen binding capacity of the column” value (ligand density 2.0 μM/ml resin) is 2.076 mg fibrinogen/ml resin and the “fibrinogen binding capacity of the column” value (ligand density 4.0 μM/ml resin) came out at 4.1 mg fibrinogen/ml resin.
